Data reported in paper PMC5958137, “Calreticulin and integrin alpha dissociation induces anti-inflammatory programming in animal models of inflammatory bowel disease” (Nature Communications, 2018).
Structures can show the parent of a compound that is named as a salt. Ends that are not written are not given here. * marks the point of attachment. Biotin = O=C1N[C@H]2[C@H](CS[C@H]2CCCCC(=O)*)N1

Key:
Calreticulin (CRT) [1] = biological target: T1, Calreticulin (CRT) (Homo sapiens, UniProt P27797); experiment: 1D 1H NMR ligand line broadening with CRT; […]-HSQC of ITGA4 peptide shows displacement from CRT; format: binding; design: gene CALR; Human CRT, His-tag fusion protein (pET-19b), expressed in E. coli
T1 sequence (P27797 18-417): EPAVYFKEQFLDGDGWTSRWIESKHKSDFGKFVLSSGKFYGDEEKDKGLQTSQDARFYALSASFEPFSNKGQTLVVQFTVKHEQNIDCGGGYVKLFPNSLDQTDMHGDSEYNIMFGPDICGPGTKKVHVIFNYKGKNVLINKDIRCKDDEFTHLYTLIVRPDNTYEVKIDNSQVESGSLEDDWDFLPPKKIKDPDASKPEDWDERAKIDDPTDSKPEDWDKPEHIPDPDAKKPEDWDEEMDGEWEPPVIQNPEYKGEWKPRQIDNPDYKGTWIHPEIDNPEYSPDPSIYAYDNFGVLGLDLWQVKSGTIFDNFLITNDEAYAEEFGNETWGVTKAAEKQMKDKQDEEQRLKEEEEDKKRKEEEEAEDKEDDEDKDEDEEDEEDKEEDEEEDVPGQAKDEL

Calreticulin (CRT) [2] = biological target: T1, Calreticulin (CRT); experiment: cell-free plate assay of biotinylated ITGA peptide (KAGFFKR) binding to purified CRT; supported by GST-CRT pull-down; design: gene CALR
[3] = biological target: T2, CRT (>90% pure) used for surface plasmon resonance (human, UniProt P27797 18-417); experiment: SPR
T2 chain: T1 sequence (P27797 18-417)

[4] = biological target: T2, CRT (>90% pure) used for surface …; experiment: SPR
[5] = biological target: T3, Human CRT protein, His-tag fusion protein (pET-19b) (human, UniProt P27797 18-417); experiment: NMR titration; two-dimensional 15N-HSQC, 4 μM 15N-ITGA4 with 4 μM CRT, 20 mM PB pH 5.5, 10% D2O, 303 K, 700 MHz; conditions: both partners purified
T3 construct: calreticulin (CRT), human; Surmise: pET-19b adds an N-terminal His tag; also called calreticulin; source: E. coli BL21, purified (Ni-NTA agarose, Superdex 75), >90% pure
T3 sequence (looked up): T1 sequence (P27797 18-417)

Q: With `CC1(C)CC(c2ccccc2N2CCN(CC3CC3)CC2)CC(C)(C)C1` [ER-339093-13, 1-(cyclopropylmethyl)-4-[2-(3,3,5,5-tetramethylcyclohexyl)phenyl] piperazine methanesulfonate] as the molecule, how does the “1D 1H NMR ligand line broadening with CRT; 15N-HSQC of ITGA4 peptide shows displ” value (Calreticulin (CRT) [1]) read?
A: notable line broadening of the ER-339093-13 signal was observed upon the addition of CRT

Q: How did the IC50 (Calreticulin (CRT) [2]) turn out when `CCCN1CCN(c2ccccc2C2CC(C)(C)CC(C)(C)C2)CC1` [ER-464195-01, 1-propyl-4-[2-(3,3,5,5-tetramethylcyclohexyl)phenyl] piperazine hydrochloride] was run?
A: 170 nM

B1: N-terminally biotinylated intracellular domain of the ITGA4 peptide (peptide)
peptide: Biotin-KAGFFKRQYKSILQEENRRDSWSYINSKSNDD
Q: For B1, which koff [3] is on record?
A: 0.00388 s⁻¹

Q: And the Kd [4]?
A: 250 nM

B2: uniformly 15N-labeled intracellular domain of ITGA4 (domain or fragment)
chain: KAGFFKRQYKSILQEENRRDSWSYINSKSNDD
modifications: also: uniformly 15N-labeled
notes: intracellular domain of integrin α4 (ITGA4), cloned BamHI-EcoRI into pGEX-2T; Surmise: thrombin cleavage of a pGEX-2T fusion leaves a few residues of the vector at the N-terminus; also called 15N-ITGA4; ITGA4 peptide
Q: Does B2 bind [5]?
A: binds
